In paper PMC3686867, “Characterization of a Novel Putative S-Adenosylmethionine Decarboxylase-Like Protein from Leishmania donovani” (PLoS ONE, 2013):

Legend:
[1] = biological target: T1, S-adenosylmethionine decarboxylase-like protein (ADL; putative S-adenosylmethionine decarboxylase-like proenzyme) (Leishmania donovani, UniProt E9BM59); assay: tryptophan fluorescence quenching titration (saturation isotherm); supported by far-UV CD; type: binding
T1 construct: gene LdCL_300037200; 894 bp L. donovani ADL gene in pQE30, 6×His-ADL, ~33 kDa, dimer
T1 sequence (E9BM59 1-297): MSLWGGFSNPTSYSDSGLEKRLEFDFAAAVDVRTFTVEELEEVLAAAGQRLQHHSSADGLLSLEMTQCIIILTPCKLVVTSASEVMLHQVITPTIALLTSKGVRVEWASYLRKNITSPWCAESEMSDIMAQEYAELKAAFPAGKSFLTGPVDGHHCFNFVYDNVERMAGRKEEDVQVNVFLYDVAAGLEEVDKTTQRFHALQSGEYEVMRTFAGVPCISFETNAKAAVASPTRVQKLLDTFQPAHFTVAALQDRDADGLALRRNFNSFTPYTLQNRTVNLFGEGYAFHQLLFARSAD

[2] = biological target: Leishmania donovani putative S-adenosylmethionine decarboxylase-like proenzyme (ADL) (Leishmania donovani); assay: native gel or EMSA; native polyacrylamide gel electrophoresis of purified ADL
[3] = biological target: Leishmania donovani putative S-adenosylmethionine decarboxylase-like proenzyme (ADL) (Leishmania donovani); assay: SEC; Superdex 75 10/300; ADL 1 mg/ml; 50 mM Tris-HCl pH 7.0, 50 mM NaCl, 3 mM β-me; 25°C; calibrated with low molecular weight standards; elution at 10.4 ml, ~66 kDa

Compound	Kd [1] [µM]	stoichiometry N [2]	stoichiometry N [3]
C[S+](CC[C@H](N)C(=O)[O-])C[C@H]1O[C@@H](n2cnc3c(N)ncnc32)[C@H](O)[C@@H]1O (stereo partly drawn) [S-adenosylmethionine]	51 ± 5	–	–
Leishmania donovani putative S-adenosylmethionine decarboxylase-like proenzyme (ADL) (natural protein)	–	2	2
